A protein production outcome set (Wang et al. 2014)

Assay: label from the status in PepcDB records

Sequence | protein production
MSSSTNDYNDGNNNGVYPLSLYLSSLSGHQDIIHNPYNHQLKASPGHMVSAVPESLIDYMAFKSNNVVNQQGFEFPEVSKEIKKVVKKDRHSKIQTAQGIRDRRVRLSIGIARQFFDLQDMLGFDKASKTLDWLLKKSRKAIKEVVQAKNLNNDDEDFGNIGGDVEQEEEKEEDDNGDKSFVYGLSPGYGEEEVVCEATKAGIRKKKSELRNISSKGLGAKARGKAKERTKEMMAYDNPETASDITQSEIMDPFKRSIVFNEGEDMTHLFYKEPIEEFDNQESILTNMTLPTKMGQSYNQNNGILMLVDQSSSSNYNTFLPQNLDYSYDQNPFHDQTLYVVTDKNFPKGKVWIQDSFVN | failed
MELREWQSKIAEKIVEALRNNFLVSLQAPTGSGKTLFALYTALKVKPKVAFVVRTHNEFFPVYRELSLHFKDKKYGFLVGKSSACVFSSSDVDAQDIYCNGCEIFNASAVTVTDSPKVSLNKLKEEGKKLGFCPYYSLLETIKTADVILLTYPYLFIPWLRESLDINWEDYVVIVDEAHNIENVSNIEEKKLNKRIIEMAISQSHSQNVKVILERLKENVEKAVYSEDKYILIEKDKLDNILPSNEEIEILSEEYDEIRKIMIKNKTVSRNYLGSILRFFDLVNDEGIRVFSYSGSLIAKYIIPSYFTDILNDEKITYMLMSGTMQPLDYLRNIIGIKRKILYIDAEKVMKKRLTGTYECLISIDVTTTYSLRSEQMARKYASYLLKIFYNSRRHVLAIFPSYEFMRIVSKFLNIRYLAEDTETSIEEIMSNLKKEKTIIMGIARGKLAEGIEIVENGSSLISDVAMVGIPYPPIDDYLKIRVEEISKILKKDISNELISIQALIAVKQSIGRAIRGPTDNATIWLLDKRYDSLWWKKELNCLNARKIKL | failed
MWITGASGGLGERIAYLCAAEGAHVLLSARREDRLIEIKRKITEEWSGQCEIFPLDVGRLEDIARVRDQIGSIDVLINNAGFGIFETVLDSTLDDMKAMFDVNVFGLIACTKAVLPQMLEQKKGHIINIASQAGKIATPKSSLYSATKHAVLGYSNALRMELSGTGIYVTTVNPGPIQTDFFSIADKGGDYAKNVGRWMLDPDDVAAQITAAIFTKKREINLPRLMNAGTKLYQLFPALVEKLAGR | failed
MIASVASTTKDRLEIVKAFRNKEITILIATSILERGVTFPNVDVFVINSEHPNFTKSALIQMAGRVGRSPERPTGLVSFFHYGKSKAMCQAVREIKKMNQLGCFSLEHHHHHH | failed
QKSVRVGISFDISEQKEGEALFEIISQNVTDVIWVYDLKLNRFRYISPSVEAMRGLPKEEAEAMSLEETLTPSSYQRAMQILEGERLRLSNPSHREIKIFSEFFDQYTHDGEVIETEVTARVVQDEG | failed
MSLSWEIEELDREIGKIKKHSLILIHEEDASSRGKDILFYILSRKLKSDNLVGMFSISYPLQLIIRILSRFGVDVIKYLENHRLAIVDTFGSFHGIKATMPGVWYLEGMLSSETLPIKYAKAVEDHKKVWMDLNLFEGRELYGFAISMSGYLEVFTPEETLRYLETSAEVRYGHPAYKKYPRGTNFWLWEGVKDKRVLLSVYRRADYVLKTRSSLGENGIKRELLVIKTPKPIEELVRFEYEFKGNEPKLRREGHHHHHH | not failed
MNPIILALFDVSIFILLAEILSSLVQKYGLPKLIGELLAGMIIGPYALGSLLNQLLGFPLIGINSYIEFLAEFSVILLIFASGLEHGIAPIKSSGILGFLGATFGALLPFFAAYYFYISSFGLDSALILGTAMGATSLAAVASIIEEGKLKGKGINFMVSSAAADDVVDLLLLSVVIAILQGESTSVTSISLKIIALVVIWVVILVVSIILIPKITDRISDKYIEEFPLAVLFGLTLLMVSLGYSPIISAFVAGVAFANSVKNSKIKEISSTLLSVFGPLFFVYIGAEVNFLTLNLNTVILSLELTAIATIFKWLGIFPFALAYLRNAKAANTVALGMVPRGETGLVIASLGLSYNALNQEEFEGIVFMSIFTTLIGSALFKIYAKKHLVS | failed
MNKPATIDFATATAIQIPAATAQAEALHDLVPGEARDSLLAVHDVLRRELPQGRLAIYEAGGGSCSVLPPELLSRSQVTVVDIDEDQVRNNTYADEAIRGDVQTYRFGGETFDLVICYNVIEHLPNVDAALLNFRDALKRGGMILIGAPNPRSLSGVVTKYSPHWFHVWFYRHIRGIRDAGLPGEPPFPTFFHPLVTLPRLEAFAAANGLDMTYRREVESPRYPEMRRRKPLFAALVDAGAAMLNAVLPRGTDVRRGDYHVILRKS | failed
MAAAAATAVGPGAGSAGVAGPGGAGPCATVSVFPGARLLTIGDANGEIQRHAEQQALRLEVRAGPDAAGIALYSHEDVCVFKCSVSRETECSRVGRQSFIITLGCNSVLIQFATPHDFCSFYNILKTCRGHTLERSVFSERTEESSAVQYFQFYGYLSQQQNMMQDYVRTGTYQRAILQNHTDFKDKIVLDVGCGSGILSFFAAQAGARKIYAVEASTMAQHAEVLVKSNNLTDRIVVIPGKVEEVSLPEQVDIIISEPMGYMLFNERMLESYLHAKKYLKPSGNMFPTIGDVHLAPFTDEQLYMEQFTKANFWYQPSFHGVDLSALRGAAVDEYFRQPVVDTFDIRILMAKSVKYTVNFLEAKEGDLHRIEIPFKFHMLHSGLVHGLAFWFDVAFIGSIMTVWLSTAPTEPLTHWYQVRCLFQSPLFAKAGDTLSGTCLLIANKRQSYDISIVAQVDQTGSKSSNLLDLKNPFFRYTGTTPSPPPGSHYTSPSENMWNTGSTYNLSSGVAVAGMPTAYDLSSVIAGGSSVGHNNLIPLANTGIVNHTHSRMGSIMSTGIVQGNRVAGPWAGDLPPGLRTRSSYQWGPGRLRGHAGSSVPMTCPTGSSGAQGGGGSSSAHYAVNNQFTMGGPAISMASPMSIPTNTMHYGS | failed
MSEILVLNCGSSSVKFALINPHTSQSLVTGLAENIATKNCKVVFKAEHKIVKYLENGSYKDVFEMLKDFLVENKHLEKIVAIGHRVVHGGQYFSKSVLINADSLEKIKACIALAPLHNPAHIEGIRFCQQIFPELPQVAVFDTAFHQTMPSYIAEYAIPYELTHKHNIRKYGAHGTSHKYVSEQAAKILTQQKANVIVAHLGNGCSITAVVDGKSIDTSMGLTPLDGLVMGTRSGCIDPSIFAYISDNLGWSVTEITNMLNKQSGLLGICGHNDMREVSQLAAKGDSLAKLAIEIFSHRVAKFVASYMIYFNKLDALVFTGGIGENAANIRKNIISKLANLGFMIDHQKNSNSETFINSKNSHNIMVIATNEELMIAQETQNLI | not failed
LDSELELPAGWEKIEDPVYGIYYVDHINRKTQYENPVLEAKRKKQLE | not failed
MDYFGLAAKYIPFVTLGLLPIMNPLSTVPLFLELTKRMSPERKHQQARRACLYALSILAVFLFIGNGIITLFGISLAGIRVAGGLIILVLAFRMLFSGEGEEASIETEATEIKRANLDFSFSPLAMPSLAGPGSIAVVMSYGSQIPDDALVFGHFIVICGISITVLIAYIALAGSAWIAKFLGEHGIQAVTKIMGFLLTCIAVQFIASGIRDFSQTL | failed
MGAAGGGWRMSERHLRRSTHKVGDVTLGPVHRLSCHCGAVQIDLDLPHGLLDPRRCDCSMCRRRGAIVASVSLDGLHVLQGEDVLRLYQFNTQTAAHYFCGVCGIYTHHRRRSNPNEYGYNVGCLEGVNPYALNIAVPVEDGVNHPADRVTAAS | failed
MKLTLRKKLLEKVENTTETPMLILSVVYVVVALLPDIAVLSPDDLEFLDGLLWIVWGIFATELLVKIFVSPKPLQYMMQNWPDVLIVAMPFLRPLRFLRILLVLPKAWRQTKSVLRQKTFSFIGLTSLSTVLLSAAFVYLVEKGTPSPINSYADALWWAMSTITTVGYGDMYPVTGFGRGVAVFLMLTGITLFGLLTASVASFFVEDDTAKQDHLSLNLLLEKNQQLETQLNQLVETQQPRKRFHLASYRRQLAERETVRKNQKPKRRRIKLPSQDNRNA | failed
MKTLVHLSDLHFGKTESQLVDAIAAEVRAVDSDLLVVSGDLTQRARKDEFLQARAFLDSLPGPRIVVPGNHDVPLWNVFARAMTPLSRYRRYIEADTDPFYADSEVAVVGINTARSLTIKDGRINVRQLKAATEKFAHMSDDITRIVVTHHPFEGRDLESDDGIVGRADLAMHAFSRSGVDIILSGHQHLHRAGSSARRYLIDGYAALLIQAGTAVSSRLRRAANSFNIIRIEHPRISVECRAWQPSQSGFETSASYSFRQGPGGWKPT | failed
